{
  "source": "patent US7019123",
  "key": {"[1]": {"molecular_target": "human plasmin (human) (UniProt P00747)", "sequence (P00747 97-810 limits assumed)": "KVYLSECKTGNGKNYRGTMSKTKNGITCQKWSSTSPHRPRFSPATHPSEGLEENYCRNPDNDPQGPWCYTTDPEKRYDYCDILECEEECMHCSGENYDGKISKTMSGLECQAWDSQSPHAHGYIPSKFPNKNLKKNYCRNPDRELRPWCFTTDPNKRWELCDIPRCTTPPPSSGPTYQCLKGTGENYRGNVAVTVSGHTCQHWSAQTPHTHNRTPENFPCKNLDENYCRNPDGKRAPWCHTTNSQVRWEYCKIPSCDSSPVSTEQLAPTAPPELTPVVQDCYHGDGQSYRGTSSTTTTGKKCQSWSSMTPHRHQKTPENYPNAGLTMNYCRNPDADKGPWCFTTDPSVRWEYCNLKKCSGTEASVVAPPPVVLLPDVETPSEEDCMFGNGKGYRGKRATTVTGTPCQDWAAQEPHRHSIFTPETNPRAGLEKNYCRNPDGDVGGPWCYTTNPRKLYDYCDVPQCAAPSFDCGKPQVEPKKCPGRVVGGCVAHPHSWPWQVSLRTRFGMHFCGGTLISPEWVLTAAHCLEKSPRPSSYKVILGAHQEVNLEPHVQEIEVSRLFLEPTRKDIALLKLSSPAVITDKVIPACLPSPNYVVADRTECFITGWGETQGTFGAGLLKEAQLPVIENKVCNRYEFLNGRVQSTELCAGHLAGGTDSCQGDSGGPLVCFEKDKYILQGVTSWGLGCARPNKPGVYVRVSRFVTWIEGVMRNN", "assay": "enzyme inhibition; human plasmin 50 pM"}, "[2]": {"molecular_target": "bovine trypsin (bovine) (UniProt P00760)", "sequence (P00760 24-246)": "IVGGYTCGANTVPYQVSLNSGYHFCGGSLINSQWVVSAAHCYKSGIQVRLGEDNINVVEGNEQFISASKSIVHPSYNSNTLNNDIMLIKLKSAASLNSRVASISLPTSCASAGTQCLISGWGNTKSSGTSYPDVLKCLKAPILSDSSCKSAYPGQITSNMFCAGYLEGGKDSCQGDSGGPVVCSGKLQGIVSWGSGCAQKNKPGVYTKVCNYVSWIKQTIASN", "assay": "enzyme inhibition; trypsin 48.5 pM"}, "[3]": {"molecular_target": "human plasma kallikrein (human) (UniProt P03952)", "sequence (P03952 20-638 limits assumed)": "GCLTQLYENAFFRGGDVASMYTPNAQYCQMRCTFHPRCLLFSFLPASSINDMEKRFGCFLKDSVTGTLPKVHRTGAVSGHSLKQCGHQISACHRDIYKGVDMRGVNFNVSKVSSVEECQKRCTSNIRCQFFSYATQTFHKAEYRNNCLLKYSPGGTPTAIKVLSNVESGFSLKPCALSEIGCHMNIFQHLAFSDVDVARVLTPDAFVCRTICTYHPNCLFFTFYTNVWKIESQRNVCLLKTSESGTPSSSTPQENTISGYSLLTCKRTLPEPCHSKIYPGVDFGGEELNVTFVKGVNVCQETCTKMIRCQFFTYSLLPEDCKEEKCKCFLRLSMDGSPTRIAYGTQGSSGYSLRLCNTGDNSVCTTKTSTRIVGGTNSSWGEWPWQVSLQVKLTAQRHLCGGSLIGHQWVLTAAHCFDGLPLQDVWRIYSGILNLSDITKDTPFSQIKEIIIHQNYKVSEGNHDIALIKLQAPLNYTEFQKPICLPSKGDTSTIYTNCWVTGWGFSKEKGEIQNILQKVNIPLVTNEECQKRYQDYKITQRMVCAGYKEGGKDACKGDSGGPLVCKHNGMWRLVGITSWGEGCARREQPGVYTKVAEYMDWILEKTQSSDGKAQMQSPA", "assay": "enzyme inhibition; apparent Ki"}, "[4]": {"molecular_target": "bovine pancreatic kallikrein (bovine)", "assay": "enzyme inhibition; bovine pancreatic kallikrein 92.0 pM"}, "[5]": {"molecular_target": "bovine pancreatic kallikrein (bovine)", "assay": "enzyme inhibition, tight-binding fit; bovine pancreatic kallikrein 92 pM, PFR-AMC"}, "[6]": {"molecular_target": "bovine pancreatic kallikrein (bovine)", "assay": "enzyme inhibition; comparison of Ki values with aprotinin"}},
  "data": [
    {"substance": "native human placental bikunin isolated from placenta (from UniProt O43291 28-203)", "values": [
      {"measurement": "Ki", "setting": "[1]", "result": 1.9, "unit": "nM"},
      {"measurement": "Ki", "setting": "[2]", "result": 0.13, "unit": "nM"}
    ]},
    {"substance": "recombinant placental bikunin (102-159) expressed in yeast SC101 (from UniProt O43291 129-186)", "values": [
      {"measurement": "Ki", "setting": "[3]", "result": 0.35, "unit": "nM"}
    ]},
    {"substance": "synthetic placental bikunin (7-64), first preparation (from UniProt O43291 34-91)", "values": [
      {"measurement": "Ki", "setting": "[4]", "result": 0.4, "unit": "nM"}
    ]},
    {"substance": "synthetic placental bikunin (102-159) (from UniProt O43291 129-186)", "values": [
      {"measurement": "Ki", "setting": "[4]", "result": 0.4, "unit": "nM"},
      {"measurement": "Ki", "setting": "[5]", "result": 0.4, "unit": "nM"},
      {"measurement": "fold higher Ki than aprotinin", "setting": "[6]", "result": 20, "unit": "fold"}
    ]}
  ]
}
